Experimental data from PMC526180, “Conservation and Evolution of Cis-Regulatory Systems in Ascomycete Fungi”.

Legend:
Settings in all cases: protein: recombinant; blunt
[1] = biological target: T1, Sc_Rpn4p (Saccharomyces cerevisiae S288C, UniProt Q03465 2-531); assay: SPR; Biacore 3000 SA chip; HBS: 10 mM HEPES pH 7.4, 150 mM NaCl, 3 mM EDTA, 0.005% P20; room temperature; 10 ul/min, 90 s injection; competitors preincubated 50 min
T1 sequence: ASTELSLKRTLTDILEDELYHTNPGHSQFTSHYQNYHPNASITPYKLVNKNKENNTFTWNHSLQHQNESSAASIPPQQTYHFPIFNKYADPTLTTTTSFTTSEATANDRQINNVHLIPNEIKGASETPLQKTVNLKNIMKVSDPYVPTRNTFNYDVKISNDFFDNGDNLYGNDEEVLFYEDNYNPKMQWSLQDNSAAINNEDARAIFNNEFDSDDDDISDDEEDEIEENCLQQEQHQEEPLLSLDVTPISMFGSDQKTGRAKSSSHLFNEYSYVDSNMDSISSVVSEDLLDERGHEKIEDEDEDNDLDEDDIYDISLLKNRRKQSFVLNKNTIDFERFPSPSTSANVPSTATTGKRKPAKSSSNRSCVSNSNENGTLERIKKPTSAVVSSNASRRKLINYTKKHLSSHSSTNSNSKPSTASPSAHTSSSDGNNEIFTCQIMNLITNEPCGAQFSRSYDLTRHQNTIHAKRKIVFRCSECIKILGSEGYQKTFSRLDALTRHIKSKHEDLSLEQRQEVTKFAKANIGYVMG

[2] = biological target: T1, Sc_Rpn4p; assay: competition; SPR; 1x and 5x competitor; Biacore 3000 SA chip; HBS: 10 mM HEPES pH 7.4, 150 mM NaCl, 3 mM EDTA, 0.005% P20; room temperature; 10 ul/min, 90 s injection; competitors preincubated 50 min
[3] = biological target: T1, Sc_Rpn4p; assay: competition; SPR; 1x and 5x competitor; best competitor on Sequences A, B, C; Biacore 3000 SA chip; HBS: 10 mM HEPES pH 7.4, 150 mM NaCl, 3 mM EDTA, 0.005% P20; room temperature; 10 ul/min, 90 s injection; competitors preincubated 50 min
[4] = biological target: T1, Sc_Rpn4p; assay: SPR; 50 nM protein; Biacore 3000 SA chip; HBS: 10 mM HEPES pH 7.4, 150 mM NaCl, 3 mM EDTA, 0.005% P20; room temperature; 10 ul/min, 90 s injection; competitors preincubated 50 min

B1: Sequence I (dsDNA)
DNA 1: ACTTGTTCCCGCTCGCTGGAGCTCCTCCAACGACACGGGC
DNA 2: GCCCGTGTCGTTGGAGGAGCTCCAGCGAGCGGGAACAAGT
binding result [1]: no binding

B2: Sequence G competitor (dsDNA)
DNA 1: CCAGATAATCCTGCATTTGGCGGAAGAAAA
DNA 2: TTTTCTTCCGCCAAATGCAGGATTATCTGG
binding result [2]: no binding

B3: Sequence D competitor (dsDNA)
DNA 1: CCAGATAATCGGTGGCAAAACGGAAGAAAA
DNA 2: TTTTCTTCCGTTTTGCCACCGATTATCTGG
binding result [3]: binds

B4: Sequence A (dsDNA)
DNA 1: GCGTGCCAGATAATCGGTGGCAAAACGGAAGAAAAAGTGA
DNA 2: TCACTTTTTCTTCCGTTTTGCCACCGATTATCTGGCACGC
binding result [4]: binds
